Measured values as given in patent publication US6833237B1, “Genes involved in stroke response and/or regulated by FK506, proteins encoded thereby, and methods of use” (Quark Biotech, Inc., priority 2000, dated 2004).

B1: SEQ ID No 94: library-derived antisense cDNA fragment of KIAA 0538, expressed from retroviral vector pLXSN (nucleic acid, listed as Homo sapiens)
antisense: TTAAAACTGCTTACCAGTGGCTGTCTGCGCTGCGGAAGGTGAGCATCAACAACACGGGACTGTTGGGCTCCTACCACCCTGGCGTCTTCCGTGGGGACAAGTGGAGCTGCTGCCACCAAAAAGAGAAGACAGGTCAGGGCTGCGATAAGACCCGGNCACGGGTGACCCTGCAGGAGTGGAATGACCCTNTTGACCGTGACCTTGAGGCCCANCTCATCTACCGGCACCTGCTGGGCGNGGAGGCCATGCTGTG
modifications: expressed from retroviral vector pLXSN; (156)..(238) n
notes: library-derived antisense cDNA fragment of KIAA 0538, expressed from retroviral vector pLXSN
B2: full length cDNA clone of KIAA 0538: full-length KIAA0538 cDNA under the control of Tet-repressible promoter, transfected into P19 cells (nucleic acid, listed as Homo sapiens)
DNA: B1 antisense
modifications: under Tet-repressible promoter; (156)..(238) n
notes: full-length KIAA0538 cDNA under the control of Tet-repressible promoter, transfected into P19 cells

Columns and labels:
BE2C cells = test: Dopamine toxicity in BE2C cells, viability by Neutral red staining; format: cell-based, human; details: for cell survival at high Dopamine concentrations compared to control: BE2C cells, infection and transfection, Dopamine 24 hours, vs empty vector (FIG. 4 and 5); for protection of cells (Neutral red staining): 24 hours after exposure to high dopamine concentrations
Text: The aim of the experiment was validation of the fragment of KIAA0538 found using Dopamine selection (SEQ. I.D. No 94) which has 253 nucleotides. A slightly smaller fragment was used , wherein the first 12 of the nucleotides of SEQ. I.D. No 94 were replaced with 5 different nucleotides. The location of this smaller fragment (having 246 nucleotides) within the KIAA0538 cDNA is from nucleotide 2020 to nucleotide 2265. For purpose of validation, cells were studied either after decrease of the gene expression by means of transfection or transduction with an antisense expressing vector (the fragment rescued from the library during the functional screening), or after increased gene expression using transfection with a full length expression vector. For experiment, BE2C cells were seeded into 6-well plates at density 100,000 cells/well. Retroviral vector expressing KIAA0538 antisense fragment (rescued in functional selection) fragment or empty vector (pLXSN) were introduced in neuroblastoma cells by two different methods—transfection using Fugen6 reagent (Rosh) or by retroviral infection. Population of transfected/transduced cells was enriched by 3 days G418 selection. BE2C cells were further treated with different concentrations of Dopamine for 24 hours and assayed for viability by Neutral red staining (FIG. 4—infection; FIG. 5—transfection).

P19 cells = test: Colony formation assay in P19 cells, normoxic or ischemic conditions; format: cell-based, mouse; details: vs empty vector (FIG. 6)
Method: FIG. 6B is a graphical representation of FIG. 6A.
The effect of the full length KIAA0538 cDNA on cell survival was tested in colony formation assay in non-differentiated P19 cells stably expressing Tet-activator (confers high level of expression from responsive promoters). P19 cells were transfected with eithet empty vector or the same vector containing the full-length KIAA0538 cDNA under the control of Tet-repressible promoter. The number of transfected cells further taken for colony formation assay was normalized by cotransfection with GFP, so that the equal number of GFP-positive cells was taken for the assay. The cells were further plated and grown in the absence of tetracycline (to ensure the gene's expression) and in the presence of hygromycin (selectable marker) for 48 hours. Then part of the plates were subjected to 16 hours ischemia (0.5% O2 and no glucose) and following the transfer into normoxic conditions were further grown until the accomplishing of hygromycin selection (death of mock-transfected cells). The cell colonies grown in plates were fixed, stained with methylene blue and photographed with a CCD camera (FIG. 6). The area of the colonies was quantified using the IMAGE-Pro program.

Molecule | cell survival at high Dopamine concentrations compared to control (BE2C cells; listed as KIAA0538 antisense fragment) | cell survival at high Dopamine concentrations compared to control (BE2C cells; listed as antisense KIAA0538 fragment) | cell survival at high Dopamine concentrations compared to control (BE2C cells; listed as antisense fragment of KIAA0538) | protection of cells (Neutral red staining) (BE2C cells; retrovirally infected BE2C cells, vs control vector pLXSN (FIG. 4)) | protection of cells (Neutral red staining) (BE2C cells; transiently transfected BE2C cells, vs control vector pLXSN (FIG. 5)) | effect on cell survival, colony formation (P19 cells; 16 hours ischemia (0.5% O2 and no glucose)) | effect on cell survival, colony formation (P19 cells; 16 hours ischemia (0.5% O2 and no glucose), listed as KIAA0538) | effect on cell survival, colony formation (P19 cells; 16 hours ischemia (0.5% O2 and no glucose), listed as full-length cDNA) | effect on cell survival, colony formation (P19 cells; normoxic conditions, listed as KIAA0538) | effect on cell survival, colony formation (P19 cells; normoxic conditions, listed as full-length cDNA)
B1 | rescue of cells from apoptotic death | protects | increased cell survival | protection | protection | – | – | – | – | –
B2 | – | – | – | – | – | very few colonies remaining | almost entirely non-viable | dramatically cytotoxic | detrimental | moderately cytotoxic
